Experimental data reported in patent publication US20040197858A1.

Assays:
[1] = molecular target: purified α-thrombin derived from plasma (human) (UniProt P00734); test: cell-based or functional assay
[2] = molecular target: purified recombinant α-thrombin (human) (UniProt P00734); test: cell-based or functional assay

Substance: antithrombin III
- Inhibition by ATIII: Secondary reaction constant [1]: 0.65 µM⁻¹ min⁻¹
- Inhibition by ATIII: Secondary reaction constant [2]: 0.57 µM⁻¹ min⁻¹
